For the assay, the target named is T1, human NRP2 variant 2 (hNRP2), untagged, on Expi293 cells (Human, UniProt O60462 23-931).
T1 construct: Transcript NM_003872 / NP_003863.2; also called Expi293-hNRP2 clonal cells; Human NRP2a (version 2)
T1 sequence: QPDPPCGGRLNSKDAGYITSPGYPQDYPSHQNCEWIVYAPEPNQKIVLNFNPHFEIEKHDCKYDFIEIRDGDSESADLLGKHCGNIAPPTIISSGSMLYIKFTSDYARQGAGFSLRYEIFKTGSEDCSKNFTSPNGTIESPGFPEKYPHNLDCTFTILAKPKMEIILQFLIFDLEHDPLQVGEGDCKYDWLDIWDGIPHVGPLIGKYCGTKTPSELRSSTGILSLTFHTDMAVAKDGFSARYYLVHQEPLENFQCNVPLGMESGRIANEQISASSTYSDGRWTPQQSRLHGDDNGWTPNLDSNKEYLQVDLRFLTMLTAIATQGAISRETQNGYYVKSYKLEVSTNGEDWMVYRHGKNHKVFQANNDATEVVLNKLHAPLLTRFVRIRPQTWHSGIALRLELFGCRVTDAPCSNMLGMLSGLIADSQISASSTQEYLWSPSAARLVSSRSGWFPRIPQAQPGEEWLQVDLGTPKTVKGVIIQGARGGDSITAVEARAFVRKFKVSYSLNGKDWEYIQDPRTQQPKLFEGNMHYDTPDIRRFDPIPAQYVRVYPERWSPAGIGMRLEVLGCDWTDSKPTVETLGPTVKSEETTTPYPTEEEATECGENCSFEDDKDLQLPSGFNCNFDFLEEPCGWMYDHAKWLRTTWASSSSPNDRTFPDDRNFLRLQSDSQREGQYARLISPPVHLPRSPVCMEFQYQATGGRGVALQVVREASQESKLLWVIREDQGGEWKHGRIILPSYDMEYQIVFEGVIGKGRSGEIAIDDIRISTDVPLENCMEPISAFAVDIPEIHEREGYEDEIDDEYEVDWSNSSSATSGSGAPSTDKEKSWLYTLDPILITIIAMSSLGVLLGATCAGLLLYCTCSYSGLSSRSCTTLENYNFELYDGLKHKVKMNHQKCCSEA
Put plainly: flow cytometry on Expi293-hNRP2 clonal cells. The procedure:
Expi293-hNRP2 clonal cells were collected by centrifugation at 300 g for 5 minutes, and washed twice by DPBS (with calcium and magnesium, ThermoFisher Cat #14040133). Washed cells were added to a 96-well V-bottom plate (ThermoFisher Cat #1424572) at 100,000 cells/well in […] of DPBS added with Zombie Violet viability stain (Biolegend Cat #423114, diluted at 1:500). From this step on, cells were protected from light. Cells were kept at room temperature for 10 min and pelleted down at 300 g for 5 minutes at 4° C. Supernatants containing Zombie Violet were discarded, and without washing, 30 uL of antibodies diluted in the flow wash buffer (FWB, DPBS plus 2% FBS and 0.1% sodium azide to inhibit receptor internalization) were added to the cells. For anti-NRP2 antibody staining on Expi293-hNRP2 clonal cells, in-house human anti-NRP2 antibodies were tested at final concentrations of 0.006-100 nM at 4-fold dilutions. […] Binding was allowed to proceed on ice for 40-60 minutes. Cells were then pelleted at 300 g for 5 minutes at 4° C., supernatants removed, and cells washed twice by adding 150 μL of FWB and centrifuging the cells again in the same conditions. To detect a-NRP2 binding on the cell surface, Cy3-conjugated goat anti-human IgG Fc (Jackson ImmunoResearch Cat #109165098) was added to the cells at a final concentration of 3 μg/mL in 30 μL of FWB. After 30-40 minutes of incubation on ice, cells were pelleted at 300 g for 5 minutes at 4° C. and supernatants removed, and the cells were washed twice as described previously. Cells were then resuspended in FWB before acquisition on the Cytoflex. Gains were set based on staining controls. Cells were collected with typically more than 10,000 events. Cells were then analyzed on FlowJo analysis software by excluding dead cells and gating singlets. The statistical analysis was performed using GraphPad Prism. A four-parameter variable-slope curve was fitted to the data ([agonist] vs. response) using non-linear regression, and the EC₅₀ and r2 for each curve was determined.
The EC₅₀ of four anti-NRP2 antibodies directed against different domains of NRP2, were measured for binding to Expi293-hNRP2 clonal cells (see Table E1 and FIG. 3).

Experimental findings from patent publication US20210163606A1 (ATYR PHARMA, published 2021) are described below.

By EC50 is commonly meant the concentration giving half of the maximal effect. High values mean a need for much substance, low ones an effect from little substance.

B1: aNRP2-10v10 (antibody, V domains shown)
VH: EVQLVQSGAEVKKPGATVKISCKVSGFNIKDYYVHWVQQAPGKGLEWMGRIDVEDDETKYAPKFQGRVTITADTSTDTAYMELSSLRSEDTAVYYCATPIYGAREAWFAYWGQGTLVTVSS
VL: DIQMTQSPSSLSASVGDRVTITCTASSSVSSSYLHWYQQKPGKAPKLLIYRTSNLASGVPSRFSGSGSGTDFTLTISSLQPEDFATYYCHQYYRSPPTFGGGTKVEIK
Molecule B1 showed an EC50 of 0.09 nM.
